Target: T1, TPP-2614, TweakR-ECD-34-68-hIgGFc-His-D47A (human)
T1 construct: alanine-scan mutein; used as HEK293 supernatant
Assay: ELISA, IgG coated at 1 µg/ml, 8-fold diluted HEK293 supernatant with the TWEAKR(34-68)-Fc mutein, anti-HIS-HRP, Amplex Red
Protocol: These TWEAKR(34-68) Fc muteins were expressed in HEK293 cells. To obtain dose-reaction data, IgGs were coated at a concentration of 1 μg/ml onto a 384-well Maxisorp ELISA plate, and a serial 2-fold dilution of the supernatant comprising the TWEAKR mutein was used as soluble binding partner. Detection was carried out using anti-HIS-HRP and Amplex Red.

B1: TPP-2090 (antibody, human IgG1, kappa, V domains shown)
VH: EVQLLESGGGLVQPGGSLRLSCAASGFTFSPYPMIWVRQAPGKGLEWVSYISPSGGSTHYADSVKGRFTISRDNSKNTLYLQMNSLRAEDTAVYYCARGGDTYFDYFDYWGQGTLVTVSS
VL: DIQMTQSPSSLSASVGDRVTITCRASQSISGYLNWYQQKPGKAPKLLIYQASSLQSGVPSRFSGSGSGTDFTLTISSLQPEDFATYYCQQSYTSPFITFGQGTKVEIKR
notes: human IgG1, anti-TWEAKR; biotinylated where used as soluble partner in the ELISAs
Question: Does B1 bind?
Answer: no binding (tested: 8-fold diluted supernatant)
